Test results taken from patent US20140322218A1 (Amgen, published 2014).
Residue numbers refer to the chain shown, from its start. Names and notes keep the numbering of the source.

What was measured:
Test in all cases: FACS, transfected 293T
[1] = target: T1, rhCDH19(1-43)::FLAG::rhCDH19(44-772), on 293T cells (rhesus macaque, UniProt Q9H159 44-772 (human entry))
T1 construct: Entry holds leader (1-43), Flag tag and CDH19 part; leader left out; also called Rh EC1-5
T1 chain: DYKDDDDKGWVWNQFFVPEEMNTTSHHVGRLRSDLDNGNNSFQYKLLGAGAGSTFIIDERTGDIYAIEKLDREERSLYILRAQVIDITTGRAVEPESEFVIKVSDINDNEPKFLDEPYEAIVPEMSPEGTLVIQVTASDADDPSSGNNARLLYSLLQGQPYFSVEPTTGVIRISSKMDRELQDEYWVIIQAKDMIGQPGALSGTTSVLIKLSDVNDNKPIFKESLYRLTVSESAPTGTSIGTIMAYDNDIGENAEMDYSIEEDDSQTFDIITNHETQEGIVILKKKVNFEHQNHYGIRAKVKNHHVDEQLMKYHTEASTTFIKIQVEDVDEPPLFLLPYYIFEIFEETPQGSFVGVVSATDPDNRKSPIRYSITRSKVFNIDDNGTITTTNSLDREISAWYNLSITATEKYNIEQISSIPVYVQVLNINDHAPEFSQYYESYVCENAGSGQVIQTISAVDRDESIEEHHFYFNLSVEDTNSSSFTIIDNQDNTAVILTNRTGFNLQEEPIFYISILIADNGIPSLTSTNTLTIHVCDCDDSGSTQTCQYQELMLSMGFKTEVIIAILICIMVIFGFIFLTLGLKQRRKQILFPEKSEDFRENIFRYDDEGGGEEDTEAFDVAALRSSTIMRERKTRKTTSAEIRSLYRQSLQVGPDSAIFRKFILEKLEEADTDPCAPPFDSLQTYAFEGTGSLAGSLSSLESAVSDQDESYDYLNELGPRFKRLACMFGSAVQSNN
Experimental: (§1) The following binding assay was completed in presence of 2 mM CaCl2. […] Cells were then washed one time and the amount of cell associated Alexa647-labelled Ab was quantitated by flow cytometry. The experiments included mock transfected controls.

[2] = target: T2, raCDH19(1-43)::FLAG::raCDH19(44-770), on 293T cells (rat)
T2 construct: Entry holds leader (1-43), Flag tag and CDH19 part; leader left out; also called Ra EC1-5
T2 chain: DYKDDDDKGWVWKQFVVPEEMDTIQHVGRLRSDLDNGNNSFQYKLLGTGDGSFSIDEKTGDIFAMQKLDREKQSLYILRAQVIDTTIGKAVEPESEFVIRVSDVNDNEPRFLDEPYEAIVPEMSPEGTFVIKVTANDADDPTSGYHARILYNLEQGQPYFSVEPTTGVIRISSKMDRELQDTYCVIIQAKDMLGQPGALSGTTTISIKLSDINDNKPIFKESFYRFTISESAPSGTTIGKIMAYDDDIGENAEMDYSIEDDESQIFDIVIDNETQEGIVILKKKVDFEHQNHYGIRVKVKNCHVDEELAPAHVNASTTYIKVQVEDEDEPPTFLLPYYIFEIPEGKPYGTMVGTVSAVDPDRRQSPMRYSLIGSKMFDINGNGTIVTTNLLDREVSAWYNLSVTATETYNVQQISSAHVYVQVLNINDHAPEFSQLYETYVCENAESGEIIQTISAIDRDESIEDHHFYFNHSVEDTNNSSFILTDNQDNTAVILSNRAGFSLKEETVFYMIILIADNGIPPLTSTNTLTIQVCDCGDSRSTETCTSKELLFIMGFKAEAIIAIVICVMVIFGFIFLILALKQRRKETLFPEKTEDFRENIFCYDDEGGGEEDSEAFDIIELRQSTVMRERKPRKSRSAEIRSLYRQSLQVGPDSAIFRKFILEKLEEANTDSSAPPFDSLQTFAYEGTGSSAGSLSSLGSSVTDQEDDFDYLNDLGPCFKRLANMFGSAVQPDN
Experimental: as §1

[3] = target: T3, rhCDH19(1-43)::FLAG::rhCDH19(44-141)::raCDH19(140-247)::rhCDH19(250-772), on 293T cells (rhesus macaque/rat chimera, UniProt Q9H159 44-772 (human entry))
T3 construct: Entry holds leader (1-43), Flag tag and CDH19 part; leader left out; also called ra EC2 (rhesus backbone)
T3 chain: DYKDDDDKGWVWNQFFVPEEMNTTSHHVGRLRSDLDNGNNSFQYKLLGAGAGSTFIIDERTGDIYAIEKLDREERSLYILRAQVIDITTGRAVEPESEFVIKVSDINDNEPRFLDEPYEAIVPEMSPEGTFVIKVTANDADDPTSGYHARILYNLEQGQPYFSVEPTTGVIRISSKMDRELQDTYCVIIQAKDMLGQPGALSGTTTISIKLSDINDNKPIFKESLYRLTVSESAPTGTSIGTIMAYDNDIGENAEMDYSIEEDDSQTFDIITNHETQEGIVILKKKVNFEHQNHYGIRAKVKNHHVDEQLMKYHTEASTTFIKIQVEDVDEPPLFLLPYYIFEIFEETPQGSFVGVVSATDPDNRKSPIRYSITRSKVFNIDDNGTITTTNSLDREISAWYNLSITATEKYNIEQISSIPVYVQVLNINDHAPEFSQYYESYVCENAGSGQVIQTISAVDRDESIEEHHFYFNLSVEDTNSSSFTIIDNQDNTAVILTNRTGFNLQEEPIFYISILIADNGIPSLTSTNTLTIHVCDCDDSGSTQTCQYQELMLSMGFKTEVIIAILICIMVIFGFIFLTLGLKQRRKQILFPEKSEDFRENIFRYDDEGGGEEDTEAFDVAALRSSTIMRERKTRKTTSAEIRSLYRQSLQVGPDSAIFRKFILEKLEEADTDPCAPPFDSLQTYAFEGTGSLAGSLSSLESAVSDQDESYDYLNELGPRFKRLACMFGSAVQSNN
Experimental: as §1

B1: hu anti-<huCDH19> 4A9 VH::huIgG1z / 4A9 VL::huLLC-C1 (Ab ID 13589) (antibody, V domains shown)
VH: QVQLQESGPGLVKPSETLSLTCTVSGGSISGYYWSWIRQPPGKGLEWFAYFSYSGSTNYNPSLKSRVTLSVDTSKNQFSLKLSSVTAADTAVYYCARNWAFHFDFWGQGTLVTVSS
VL: QSVLTQPPSVSGAPGQRVTISCTGSSSNIGTGYAVHWYQQFPGTAPKLLIYGNNNRPSGVPDRFSGSKSGTSASLAITGLQAEDEADYYCQSYDSRLSGWVFGGGTKLTVLG
notes: Recombinant fully human IgG1
binding result [1]: binds
binding result [2]: no binding (tested: 5 ug/ml)
binding result [3]: no binding (tested: 5 ug/ml)

B2: anti-CDH19 antibody 2G6 (Ab ID 13588) (antibody, human IgG1, lambda, V domains shown)
VH: QVQLVESGGGVVQPGRSLRLSCAASGFTFSSYGMHWVRQAPGKGLEWVAFIWYDGSNKYYADSVKDRFTISRDNSKNTLYLQMKSLRAEDTAVYYCARRAGIIGTIGYYYGMDVWGQGTTVTVSS
VL: SYELTQPPSVSVSPGQTASITCSGDRLGEKYTCWYQQRPGQSPLLVIYQDTKRPSGIPERFSGSNSGNTATLTISGTQAMDEADYYCQAWDSSTVVFGGGTKLTVLG
binding result [1]: binds
binding result [2]: binds

B3: hu anti-<huCDH19> 25F8.1 (1-469)(F90Y) VH::huIgG1z / 25F8.1 (1-235)(K45Q,S102A,D111E) VL::huLLC-C2 (Ab ID 14096) (antibody, V domains shown)
VH: QVQLVQSGAEVKKPGASVKVSCKASGYTFTSYYIHWVRQAPGQGLEWMGIINPSGGSTRYAQKFQGRVTMTRDTSTSTVYMELSSLRSEDTAVYYCARGGIQLWLHFDYWGQGTLVTVSS
VL: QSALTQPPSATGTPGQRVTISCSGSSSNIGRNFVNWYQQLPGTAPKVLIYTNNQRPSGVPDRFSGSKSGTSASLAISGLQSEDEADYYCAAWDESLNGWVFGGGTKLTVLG
notes: Engineered variant of 25F8
binding result [1]: binds
binding result [2]: no binding (tested: 5 ug/ml)
binding result [3]: no binding (tested: 5 ug/ml)

B4: hu anti-<huCDH19> 26D1.1 VH::huIgG1z / 26D1.1 VL::huLLC-C2 (Ab ID 13882) (antibody, V domains shown)
VH: B3 VH with G26R, I34M, H35S, N52H, S57D, R59T, R72G, Q102K
VL: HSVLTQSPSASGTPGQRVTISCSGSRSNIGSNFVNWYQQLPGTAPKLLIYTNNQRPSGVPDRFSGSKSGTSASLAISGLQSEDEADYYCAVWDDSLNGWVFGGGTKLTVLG
binding result [1]: binds
binding result [2]: no binding (tested: 5 ug/ml)
binding result [3]: no binding (tested: 5 ug/ml)

B5: hu anti-<huCDH19> 4B10 VH::huIgG1z / 4B10 VL::huKLC (Ab ID 13590) (antibody, V domains shown)
VH: QVQLVESGGGVVQPGRSLRLSCAASGFTFSSYDMHWVRQAPGKGLEWVAVISYDGTNEYYADSVKGRFTISRDTSKNTLYLQMNSLRAEDTAVYYCARERYFDWSFDYWGQGTLVSVSS
VL: EIVLTQSPGTLSLSPGERATLSCRASQSVSNTYLAWYHQRPGQAPRLLIYGASSRATGIPDRFSGSGSGTDFALTISSLEPEDFAVYYCQQYSNSWTFGQGTKVEIKR
binding result [1]: binds
binding result [2]: binds

B6: hu anti-<huCDH19> 23A10.3 (1-474)(L92Q) VH::huIgG1z / 23A10.3 (1-231)(C42S) VL::huLLC-C2 (Ab ID 14077) (antibody, V domains shown)
VH: B2 VH with S31R, M34I, F50V, D66G, K84N, T91S, I103P, I106T
VL: B2 VL with T32V, C33S, R38K, L44I, T51N, R53W
notes: Engineered variant of 23A10
binding result [1]: binds
binding result [2]: binds

B7: anti-CDH19 antibody 4A2 (Ab ID 13592) (antibody, human IgG1, kappa, V domains shown)
VH: QVQLQESGPGLVKPSQTLSLTCTVSGGSISSSGYYWSWIRQHPGKGLEWIGYIYYTGSAYYNPSLKSRVTISVDTSKNQFSLKLSSVTAADTAVYYCARDGSSGWYFQYWGQGTLVTVSS
VL: EIVLTQSPGTLSLSPGERATLSCRASRNISSSYLAWYQQKPGQAPRLLIYGPSSRATGIPDRFSGSGSGTDFTLTISRLEPEDFTVYYCQQYGSSFTFGPGTKVDIKR
binding result [1]: binds
